US20240254220A1, “COMBINED THERAPY USING ANTI-CD300C ANTIBODY” (CentricsBio, Inc., priority 2021, published 2024)

Key:
[1] = system: colon cancer cell line (CT26) tumor; assay: Tumor volume, complete remission and long-term survival, CT26 model, combined administration; type: in vivo, BALB/c mice; conditions: CL7 25 mg/kg, anti-PD-1 10 mg/kg, anti-CTLA-4 4 mg/kg i.p. D11, D14, D18
[2] = system: colon cancer cell line (CT26) tumor; assay: Tumor-infiltrating lymphocytes and macrophages in CT26 cancer tissue after combined use; type: in vivo, BALB/c mice
From the text: In order to identify effects of the anti-CD300c monoclonal antibody on tumor-infiltrating lymphocytes (TIL) in a tumor microenvironment (TME), on day 25 of an experiment conducted by the same method as in Experimental Example 7.1, the mice were euthanized, and injected intravascularly with 1% paraformaldehyde (PFA) to perform perfusion, and then the cancer tissue was obtained. The obtained cancer tissue was fixed using 1% PFA, and sequentially dehydrated using 10%, 20%, and 30% sucrose solutions. The dehydrated cancer tissue was frozen in OCT compound (optimal cutting temperature compound), and then the cancer tissue was sectioned to a thickness of 50 μm using a cryotome. The tissue was incubated at 37° C. for 1 hour in a mixed solution of collagenase D (20 mg/mL) and DNase I (2 mg/mL). Thereafter, the resultant product was filtered through a 70 μm cell strainer, followed by the lysis of red blood cells, and then again filtered through a nylon mesh for making single cells. To suppress non-specific reactions in the single cell suspension, the cells were incubated with a CD16/32 antibody (Invitrogen) for 1 hour, and then cell viability was identified, and CD8+ T cells and CD31+ cancer blood vessel cells, which are tumor-infiltrating lymphocyte markers, were stained.
In order to identify whether the anti-CD300c monoclonal antibody increases M1 macrophages in the cancer tissue of mouse models, the cancer tissue sections prepared by the same method as in Experimental Example 7.2 were stained with antibodies to the M1 macrophage marker iNOS and the M2 macrophage marker CD206, and analyzed by FACS.
In order to identify whether the anti-CD300c monoclonal antibody CL7 promotes CD8+ T cell immunity in mouse tumor models, on day 25 of the experiment conducted by the same method as in Experimental Example 7.1, the mice were euthanized, and injected intravascularly with 1% paraformaldehyde (PFA) to perform perfusion, and then the cancer tissue was obtained. The obtained cancer tissue was fixed using 1% PFA, and sequentially dehydrated using 10%, 20%, and 30% sucrose solutions. […]

[3] = system: colon cancer cell line (CT26) tumor; assay: In vivo cancer growth inhibition, CT26 model, CL7 and anti-PD-1; parameters: species or system BALB/c mice; conditions: CL7 10 mg/kg, anti-PD-1 10 mg/kg i.p. D12, D15, D19, D22; 25 days
Procedure: In order to identify anticancer effects of the anti-CD300c monoclonal antibody CL7 under in vivo conditions, a colon cancer cell line (CT26) at 2×10^5 cells was transplanted by subcutaneous injection into 8-week-old BALB/c mice to prepare syngeneic mouse tumor models. Animal breeding and experiments were all conducted in a SPF facility. On day 12 (D12) after transplantation of the colon cancer cell line, the mice with a tumor size of 50 mm^3 to 100 mm^3 were administered the anti-CD300c monoclonal antibody and an anti-PD-1 antibody purchased from BioXcell alone or in combination, and for a control group, the mice were administered the same amount of phosphate buffered saline (PBS). Specifically, the mice were intraperitoneally injected with the respective antibodies (CL7: 10 mg/kg; and anti-PD-1 antibody: 10 mg/kg) alone or in combination, twice a week for two weeks (a total of 4 times on D12, D15, D19, and D22). The tumor volume was measured for 25 days.

CD300c antigen = molecular target: T1, CD300c antigen (Homo sapiens, UniProt Q08708); assay: Binding ELISA of CL7 (Experimental Example 2.3); conditions: CL7 diluted from 10 μg/mL
T1 sequence (Q08708 21-224): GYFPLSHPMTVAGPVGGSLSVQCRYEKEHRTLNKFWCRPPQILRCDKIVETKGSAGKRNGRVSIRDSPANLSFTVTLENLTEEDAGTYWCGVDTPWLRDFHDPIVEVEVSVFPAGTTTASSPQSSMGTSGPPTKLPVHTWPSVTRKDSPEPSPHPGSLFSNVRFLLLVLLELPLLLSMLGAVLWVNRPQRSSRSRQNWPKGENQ
Procedure: CD300c antigen (250 ug/mL) was diluted to a concentration of 800 ng/mL in coating buffer (0.1 M sodium carbon ate, pH 9.0), placed into a 96-well microplate at 100 μL per well, and incubated at 4° C. overnight. The next day, the microplate was washed three times with 200 μL of PBST. Thereafter, 200 μL of a blocking buffer (5% skim milk) was added thereto, followed by blocking at room temperature for 1 hour. The anti-CD300c monoclonal antibody CL7 was diluted to 200 μg/mL in PBS, and the concentration thereof was checked by measurement using Nanodrop (product name: NanoDrop One/One, manufactured by Thermo Fisher Scientific). Subsequently, CL7 was diluted in quadruplicate with PBS starting from 10 μg/mL, and added at 100 μL each, followed by incubation at room temperature for 1 hour. After the incubation, the microplate was washed three times with […] of PBST. A secondary antibody (conjugated anti-Fc IgG) was diluted 1:10,000 in blocking buffer, and added at 100 μL, followed by incubation at room temperature for 1 hour, and then washed three times with 200 μL of PBST. […] Then, 50 μL of 1 N sulfuric acid was added to stop development, and measurement was performed at 450 nm using a microplate reader (product name: Varioskan LUX) to obtain binding affinity results.

[4] = system: colon cancer cell line (CT26) tumor; assay: IFN-g ELISPOT of spleen in CT26 syngeneic mouse tumor model; type: in vivo, BALB/c mice; conditions: 25 mg/kg i.p., day 25
Procedure: In order to identify effects of the anti-CD300c monoclonal antibody CL7 on CD8+ T cells under in vivo conditions, syngeneic mouse tumor models were prepared as in Experimental Example 3.2 and administered the anti-CD300c monoclonal antibody at the same concentration. On day 25 after injection, the mice were sacrificed, and spleen were collected from each of six mice in the CL7 25 mg/kg administration group showing a highest antitumor effect compared with the control group. Subsequently, the results were identified by measuring IFN-g through ELISPOT assay. Specifically, the Mouse IFN-g ELISpot kit was purchased from R&D Systems (#EL485), and IFN-g was measured according to the protocol for the kit.

[5] = system: mouse macrophages (Raw264.7); assay: TNF-α production in mouse macrophages (M1 differentiation); type: cell-based; conditions: Raw264.7, 10 μg/mL
Procedure: In order to identify whether anti-CD300c monoclonal antibodies can promote the differentiation from mouse macrophages into M1 macrophages, mouse macrophages (Raw264.7) were dispensed into a 96-well plate at a concentration of 1×10^4 cells/well, and then treated with 10 μg/mL CL7, followed by incubation. Thereafter, the production amount of TNF-α was identified by an ELISA kit (Human TNF-α Quantikine kit, R&D Systems).

[6] = CT26 cancer tissue, day 25, FACS

B1: CL7: anti-CD300c monoclonal antibody, VH3VL1 phage library, VH SEQ ID 327, VL SEQ ID 328 (antibody, V domains shown)
VH: EVQLLESGGGLVQPGGSLRLSCAASGFTFSRYAMSWVRQAPGKGLEWVSAISGSGGSTYYADSVKGRFTISRDNSKNTLYLQMNSLRAEDTAVYYCARSSQGIFDIWGQGTLVTVSS
VL: QSVLTQPPSASGTPGQRVTISCSGNNIGTRRVHWYQQLPDTAPKLLIYSKNNRPSGVPDRFSGSKSGTSASLAISGLRSEDEADYYCAAWDDSLSGPVFGGGTKLTVL
modifications: CL7 Heavy Chain Variable Region; CL7 Light Chain Variable Region
- growth of cancer (tumor volume) [1]: inhibited
- M1 macrophages (iNOS) in cancer tissue [2, 6]: remarkably increased
- M2 macrophages (CD206) in cancer tissue [2, 6]: hardly observed
- CD8+ T cells in cancer tissue ([2]; Experimental Example 7.4, CT26 cancer tissue sections, day 25): remarkably increased
- cancer growth (tumor volume) [3]: inhibited
- binding to CD300c (CD300c antigen): bound to CD300c in a concentration-dependent manner
- expression of IFN-g (ELISPOT) [4]: increased
- production level of TNF-α [5]: increased
